B1: Vang-like protein 1 (Homo sapiens), Q8TAA9 (parent)
chain: MDTESTYSGYSYYSSHSKKSHRQGERTRERHKSPRNKDGRGSEKSVTIQPPTGEPLLGNDSTRTEEVQDDNWGETTTAITGTSEHSISQEDIARISKDMEDSVGLDCKRYLGLTVASFLGLLVFLTPIAFILLPPILWRDELEPCGTICEGLFISMAFKLLILLIGTWALFFRKRRADMPRVFVFRALLLVLIFLFVVSYWLFYGVRILDSRDRNYQGIVQYAVSLVDALLFIHYLAIVLLELRQLQPMFTLQVVRSTDGESRFYSLGHLSIQRAALVVLENYYKDFTIYNPNLLTASKFRAAKHMAGLKVYNVDGPSNNATGQSRAMIAAAARRRDSSHNELYYEEAEHERRVKKRKARLVVAVEEAFIHIQRLQAEEQQKAPGEVMDPREAAQAIFPSMARALQKYLRITRQQNYHSMESILQHLAFCITNGMTPKAFLERYLSAGPTLQYDKDRWLSTQWRLVSDEAVTNGLRDGIVFVLKCLDFSLVVNVKKIPFIILSEEFIDPKSHKFVLRLQSETSV
partner: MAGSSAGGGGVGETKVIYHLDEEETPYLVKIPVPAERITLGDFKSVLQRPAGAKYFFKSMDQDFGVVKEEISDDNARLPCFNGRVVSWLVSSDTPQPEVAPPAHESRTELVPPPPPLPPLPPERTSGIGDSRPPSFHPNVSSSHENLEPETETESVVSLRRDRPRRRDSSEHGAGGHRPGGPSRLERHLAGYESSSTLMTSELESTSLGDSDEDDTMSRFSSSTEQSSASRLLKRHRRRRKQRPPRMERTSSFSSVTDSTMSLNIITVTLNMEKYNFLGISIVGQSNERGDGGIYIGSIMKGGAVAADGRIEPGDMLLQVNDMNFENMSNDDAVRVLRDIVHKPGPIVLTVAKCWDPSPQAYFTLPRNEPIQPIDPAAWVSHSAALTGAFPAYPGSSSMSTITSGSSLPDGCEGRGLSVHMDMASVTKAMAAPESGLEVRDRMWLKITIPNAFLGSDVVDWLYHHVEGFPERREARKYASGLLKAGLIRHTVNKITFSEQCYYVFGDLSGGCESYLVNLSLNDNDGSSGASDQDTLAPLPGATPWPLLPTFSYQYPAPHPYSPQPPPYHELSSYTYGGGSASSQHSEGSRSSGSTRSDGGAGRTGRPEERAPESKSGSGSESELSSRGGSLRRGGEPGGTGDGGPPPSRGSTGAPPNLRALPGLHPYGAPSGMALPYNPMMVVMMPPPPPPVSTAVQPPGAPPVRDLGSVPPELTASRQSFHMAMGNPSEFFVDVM
B2: Vang-like protein 1 (Homo sapiens), Q8TAA9 (parent)
chain: B1 chain
partner: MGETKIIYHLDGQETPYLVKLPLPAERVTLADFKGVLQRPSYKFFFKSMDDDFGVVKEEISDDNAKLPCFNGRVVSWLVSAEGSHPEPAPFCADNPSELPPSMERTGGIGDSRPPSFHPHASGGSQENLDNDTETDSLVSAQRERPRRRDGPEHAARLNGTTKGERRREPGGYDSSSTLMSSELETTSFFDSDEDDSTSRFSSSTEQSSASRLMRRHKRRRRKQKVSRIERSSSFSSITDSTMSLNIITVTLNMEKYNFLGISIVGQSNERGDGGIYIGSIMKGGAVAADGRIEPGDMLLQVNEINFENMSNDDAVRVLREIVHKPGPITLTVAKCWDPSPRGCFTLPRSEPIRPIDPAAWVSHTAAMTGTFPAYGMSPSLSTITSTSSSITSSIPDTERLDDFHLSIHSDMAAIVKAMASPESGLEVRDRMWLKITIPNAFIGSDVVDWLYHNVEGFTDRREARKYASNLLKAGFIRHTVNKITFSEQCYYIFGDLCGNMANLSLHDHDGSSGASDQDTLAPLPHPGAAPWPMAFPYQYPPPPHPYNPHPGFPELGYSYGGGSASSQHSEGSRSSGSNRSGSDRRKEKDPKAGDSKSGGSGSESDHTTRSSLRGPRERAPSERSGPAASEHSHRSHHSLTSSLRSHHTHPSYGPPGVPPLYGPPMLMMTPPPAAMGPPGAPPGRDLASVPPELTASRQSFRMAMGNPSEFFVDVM

Variants of: B1
Settings: with dvl2_mouse Dvl2, Q60838

| effect of a mutation on the interaction | Variant |
| --- | --- |
| disrupting interaction strength | D259E |
| with no effect | R274Q |
| decreasing interaction strength | S467N |
| with no effect | M328T |

Variants of: B2
Settings: with dvl3_mouse Dvl3, Q61062

| effect of a mutation on the interaction | Variant |
| --- | --- |
| with no effect | R274Q |
| with no effect | S467N |
| disrupting interaction strength | V239I |
| disrupting interaction strength | D259E |
| with no effect | M328T |
